The series concerns the target T1, His6-CRP (cAMP receptor protein) (Shewanella putrefaciens CN32) (UniProt A0ABX8XCW1).
T1 sequence: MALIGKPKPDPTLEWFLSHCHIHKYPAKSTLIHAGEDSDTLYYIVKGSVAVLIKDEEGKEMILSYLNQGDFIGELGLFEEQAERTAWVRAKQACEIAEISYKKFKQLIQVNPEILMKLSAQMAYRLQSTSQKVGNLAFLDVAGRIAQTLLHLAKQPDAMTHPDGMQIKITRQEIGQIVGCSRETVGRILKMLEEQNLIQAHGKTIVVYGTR
Kind of series: EMSA. Particulars: EMSA per DIG Gel Shift Kit 2nd Generation (Roche) protocol, 1 uM cAMP when necessary; buffer, salt, pH and temperature not given. In general terms: A gel shift assay detects complexes by their altered migration in electrophoresis.

As to “ACCGATCCCATAATTAGCTCCCAACACCCAAGTGTTAATCCAAACAAAGGCCCACAAATCCAACAAATGTATGGAAGTGTGATACAAGTGGTGGAATTTTAGCTAATGAGCGAATGGAAGTCAATTTTTTGACGCGCCTCTATCGCTTGGTATTAAGGCTTTTTCTTGCGCATTACCTGTAAAATTGACGCTGGTTTTGTATAAAACTAGATGTTGTATGTTTATTTGTA (double strand) [bpfA-pro]”, the binding entry is “binds”.

Source of the values: PMC8938473.
